Measurements reported in paper PMC8234031, “Modular Assembly of Phosphite Dehydrogenase and Phenylacetone Monooxygenase for Tuning Cofactor Regeneration” (Biomolecules, 2021).

Assays:
[1] = molecular target: PTDHI (phosphite dehydrogenase with a C-terminal RIDD tag)
[2] = molecular target: PTDHA2 (phosphite dehydrogenase with a C-terminal RIAD–RIAD tag); assay: SEC; each purified tagged protein alone, in the absence of any other tagged protein; Superdex 200 (10/300), 50 mM Tris–HCl with 150 mM NaCl, pH 7.5
[3] = molecular target: PTDHA (phosphite dehydrogenase with a C-terminal RIAD tag); assay: as above

Row | Substance | conversion of 5.0 mM bicyclo[3.2.0]hept-2-en-6-one after 24 h by the mixture of the two tagged enzymes [1] | also measured
1 | PAMOA2 (phenylacetone monooxygenase with a C-terminal RIAD–RIAD tag) (enzyme) | 78% | –
2 | PAMOA (phenylacetone monooxygenase with a C-terminal RIAD tag) (enzyme) | 78% | –
3 | PTDHA2 (phosphite dehydrogenase with a C-terminal RIAD–RIAD tag) (enzyme) | – | stoichiometry N [2]: 2
4 | PTDHA (phosphite dehydrogenase with a C-terminal RIAD tag) (enzyme) | – | stoichiometry N [3]: 2
